We go through 1 molecule from patent publication US20250277030A1, “ANTI-NAPI2B ANTIBODIES AND METHODS OF USE” (Zymeworks BC Inc., priority 2022, published 2025).

One series concerns dsDNA. In words: NS-ELISA non-specific binding, dsDNA. Particulars: mAb at 100 nM. On the procedure: (§1) The isoelectric point was measured by capillary isoelectric focusing (cIEF), the propensity for self-aggregation was measured by Affinity-capture self-interaction nanoparticle spectroscopy (AC-SINS) and non-specific binding was measured by NS-ELISA, as described below.
NS-ELISA was used to measure the propensity of the antibodies to bind to a range of biomolecules to emulate the undesirable non-specific interactions to biological matrices in vivo as described below.
NS-ELISA was carried out in Corning®96-well EIA/RIA Easy Wash™ Clear Flat Bottom Polystyrene High Bind Microplate coated overnight at 4° C. with 50 μL of Heparin (Sigma, H3149) diluted with 50 mM sodium carbonate pH 9.6 to a final concentration of 250 μg/mL. The plate was incubated for 2 days at room temperature, wells that were coated with heparin were not covered to allow air dry. […] Reactions were stopped after approximately 10 minutes by adding 100 μL of 1 M HCl to each well, and absorbance was read at 450 nm. Binding scores were calculated as the ratio of the ELISA signal of the antibody (antibody-treated) to the signal of a well containing buffer instead of the primary antibody (untreated). The cutoffs considered for each binding molecule (ssDNA, KLH, insulin, dsDNA and heparin) were internally calculated, based on the average of Zymeworks Inc. produced antibodies and antibodies benchmarks published in the literature.
(ELISA stands for enzyme-linked immunosorbent assay.)

The target of series [1] is T1, NaPi2b expressed on TOV-21G cells (Homo sapiens, UniProt O95436).
T1 construct: IGROV-1 and TOV-21G cells express endogenous NaPi2b at high and moderate levels, respectively; endogenous in cells; host or cells: TOV-21G
T1 sequence (O95436 1-690): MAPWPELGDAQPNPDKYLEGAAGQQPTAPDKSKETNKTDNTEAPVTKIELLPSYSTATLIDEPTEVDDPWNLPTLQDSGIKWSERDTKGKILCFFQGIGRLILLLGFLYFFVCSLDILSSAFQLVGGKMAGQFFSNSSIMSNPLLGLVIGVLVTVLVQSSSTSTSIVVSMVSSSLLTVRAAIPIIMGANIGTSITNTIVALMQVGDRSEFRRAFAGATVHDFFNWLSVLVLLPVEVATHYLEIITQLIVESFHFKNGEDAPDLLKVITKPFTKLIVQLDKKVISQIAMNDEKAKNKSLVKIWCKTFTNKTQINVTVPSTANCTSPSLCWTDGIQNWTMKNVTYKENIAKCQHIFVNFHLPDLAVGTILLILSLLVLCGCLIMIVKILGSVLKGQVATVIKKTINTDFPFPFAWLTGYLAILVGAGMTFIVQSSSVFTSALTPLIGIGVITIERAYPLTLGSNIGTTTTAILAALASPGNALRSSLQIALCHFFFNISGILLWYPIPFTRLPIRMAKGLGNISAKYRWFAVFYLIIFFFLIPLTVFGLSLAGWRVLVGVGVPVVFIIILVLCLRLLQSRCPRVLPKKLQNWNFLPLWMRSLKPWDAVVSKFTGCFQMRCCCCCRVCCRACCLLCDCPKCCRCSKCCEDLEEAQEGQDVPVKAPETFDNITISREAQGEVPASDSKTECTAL
The series can be described thus: Cellular binding to TOV-21G cells by flow cytometry (Example 19). The following applies: NB = no binding (apparent Kd >150 nM). The protocol: Briefly, cells were seeded at 50,000 cells/well in conical-bottom 96-well plates and treated with test antibody for 24 hours at 4° C. to prevent internalization. Palivizumab (anti-RSV antibody, v22277) was included as a negative control. […] Following incubation, cells were washed and stained with anti-Human IgG Fc AF647 conjugate (Jackson Immuno Research Labs, West Grove, PA; Cat. No. 109-605-098) at 4° C. for 30 min. Following incubation and washing, fluorescence was detected by flow cytometry on a BD LSRFortessa™ Cell Analyzer (BD Biosciences, Franklin Lake, NJ) with 1,000 minimum events collected per well. The AF647/APC-A GeoMean (fluorescence signal geometric mean, proportional to anti-Human AF647 binding) was calculated for the live cell population using FlowJo™ Version 10.8.1 (BD Biosciences, Franklin Lake, NJ) and plotted for each test antibody using GraphPad Prism Version 9 (GraphPad Software, San Diego, CA).
The ability of the humanized antibody variants v38591 and v29456 to bind to NaPi2b expressed on cells was assessed on endogenous NaPi2b-expressing tumor cell lines IGROV-1 (ovarian adenocarcinoma) and TOV-21G (ovarian carcinoma) by flow cytometry. IGROV-1 and TOV-21G cells express endogenous NaPi2b at high and moderate levels, respectively, as described in Example 10.
Cellular binding was performed according to methods described in Example 13.
Background: Flow cytometry measures light scatter and fluorescence of single cells or particles in a stream.

A short description of series [2]: Capillary isoelectric focusing (cIEF). It counts as physicochemical. Particulars: main isoform; 0.5 mg/mL. On the procedure:
as §1
cIEF was carried out using Maurice C. (ProteinSimple®) system, System Suitability Kit and Method Development Kit. System suitability standard, fluorescence calibration standard, cartridge and samples were prepared according to vendor's recommendations. The capillary was automatically calibrated with a fluorescence standard preconditioned with Maurice cIEF System Suitability Kit to ensure the capillary was functioning properly. The antibody samples were diluted to a concentration of 0.5 mg/mL in a final volume of 40 μL in Gibco™ Distilled Water, and mixed Maurice cIEF Method Development Kit Samples. The samples were then vortexed, centrifuged and the supernatant pipetted into individual wells of a 96-well plate. All electropherograms were detected with UV absorbance at 280 nm. All data analyses were performed using vendor software Compass for iCE (ProteinSimple®).

B1: v29456: humanized anti-NaPi2b IgG1/kappa antibody H1L2; VH SEQ ID NO:24, VL SEQ ID NO:29 (antibody, V domains shown)
VH: QVQLVQSGAEVKKPGASVKVSCKASGFTFTSYNVHWVRQAPGQGLEWMGAISPGNGDLSYAQKFQGRVTMTRDTSTSTVYMELSSLRSEDTAVYYCARGRTGMGAVDYWGQGTLVTVSS
VL: DVQMTQSPSSLSASVGDRVTITCRASQDVYSYLNWYQQKPGKAVKLLIYYTSRLQSGVPSRFSGSGSGTDYTLTISSLQPEDFATYYCQQYNIFPWTFGQGTKLEIK
modifications: v29452, v29456, v29460 VH (H1); v29453, v29454, v29455, v29456 VL (L2)
As to B1, the “NS-ELISA binding score (ratio of signal between antibody-treated and untreated), dsDNA” value in the series on dsDNA worked out at 1.07. Besides, in series [1], the Bmax is 11,271, the “Curve Hill Slope (h)” value came out at 1.1 and the Kd was found to be 0.6 nM. In addition, in series [2], the “cIEF pI” value is on record as 8.53.
